Experimental findings from article PMC10786891, “Massively parallel profiling of RNA-targeting CRISPR-Cas13d” are described below.

First the molecules themselves.
B1: target 1 insA 3' of 13,insU 3' of 12 (mixed)
RNA 1: CACCCGUGCAAAAAUGCAGGGGUCUAAAACUGAGCGGAUAACCUCUCUAUGG
RNA 2: GGGAAUGGAUCCACAUCUACGAAUUCGUACCAUAGAGAGAGUUUAUCCGCUCACCGAGAUCGGAAGAGCACACGU
B2: target 1 insG 3' of 11,insA 3' of 2 (mixed)
RNA 1: B1 RNA 1
RNA 2: GGGAAUGGAUCCACAUCUACGAAUUCGUACCAUAGAGAGGUGUAUCCGCUCAACCGAGAUCGGAAGAGCACACGU
B3: target 1 insG 3' of 19,insU 3' of 15 (mixed)
RNA 1: B1 RNA 1
RNA 2: B1 RNA 2 with A34G, G35A, A36G, G37A, A38G, G39U, U42G
B4: target 1 insU 3' of 14,insC 3' of 12 (mixed)
RNA 1: B1 RNA 1
RNA 2: B1 RNA 2 with G39U, A40G, U42C
B5: target 1 G12A,G15U (mixed)
RNA 1: B1 RNA 1
RNA 2: GGGAAUGGAUCCACAUCUACGAAUUCGUACCAUAGAUAGAUUAUCCGCUCACCGAGAUCGGAAGAGCACACGU
B6: target 1 U3A,G12A (mixed)
RNA 1: B1 RNA 1
RNA 2: B5 RNA 2 with U37G, U49A
B7: target 1 insU 3' of 15,insG 3' of 2 (mixed)
RNA 1: B1 RNA 1
RNA 2: B2 RNA 2 with A38U, G39A, U41G, G42U, A52G
B8: target 1 C2A,U10A (mixed)
RNA 1: B1 RNA 1
RNA 2: B5 RNA 2 with U37G, A40G, U42A, C50A
B9: target 1 insG 3' of 14,insA 3' of 2 (mixed)
RNA 1: B1 RNA 1
RNA 2: B2 RNA 2 with U41G, G42U
B10: target 1 insG 3' of 14,insG 3' of 3 (mixed)
RNA 1: B1 RNA 1
RNA 2: B2 RNA 2 with U41G, G42U, C51G, A52C
B11: target 1 A18U,C21U (mixed)
RNA 1: B1 RNA 1
RNA 2: B5 RNA 2 with C31U, A34U, U37G, A40G
B12: target 1 A1G,A18G (mixed)
RNA 1: B1 RNA 1
RNA 2: B5 RNA 2 with A34G, U37G, A40G, A51G
B13: target 1 insC 3' of 5,insG 3' of 3 (mixed)
RNA 1: B1 RNA 1
RNA 2: B2 RNA 2 with G42U, U43A, A44U, U45C, C47G, G48C, C51G, A52C
B14: target 1 insU 3' of 17,insC 3' of 15 (mixed)
RNA 1: B1 RNA 1
RNA 2: B1 RNA 2 with A36U, G37A, A38G, G39C, U42G
B15: target 1 insG 3' of 11,insC 3' of 1 (mixed)
RNA 1: B1 RNA 1
RNA 2: B2 RNA 2 with A53C
B16: target 1 insG 3' of 11,insC 3' of 11 (mixed)
RNA 1: B1 RNA 1
RNA 2: B1 RNA 2 with A40G, G41U, U42G, U43C
B17: target 1 insC 3' of 15,insC 3' of 9 (mixed)
RNA 1: B1 RNA 1
RNA 2: B1 RNA 2 with A38C, G39A, A40G, U44A, A45C
B18: target 1 G5C,G15C (mixed)
RNA 1: B1 RNA 1
RNA 2: B5 RNA 2 with U37C, A40G, G47C
B19: target 1 insC 3' of 12,insU 3' of 9 (mixed)
RNA 1: B1 RNA 1
RNA 2: B1 RNA 2 with A40G, G41C, U44A, A45U
B20: target 1 C7A,U8C (mixed)
RNA 1: B1 RNA 1
RNA 2: B5 RNA 2 with U37G, A40G, U44C, C45A
B21: target 1 C6U,G15U (mixed)
RNA 1: B1 RNA 1
RNA 2: B5 RNA 2 with A40G, C46U
B22: target 1 C4A,C22A (mixed)
RNA 1: B1 RNA 1
RNA 2: B5 RNA 2 with C30A, U37G, A40G, C48A
B23: target 1 insA 3' of 10,insU 3' of 2 (mixed)
RNA 1: B1 RNA 1
RNA 2: B2 RNA 2 with G42U, U43A, A52U
B24: target 1 insG 3' of 14,insC 3' of 1 (mixed)
RNA 1: B1 RNA 1
RNA 2: B2 RNA 2 with U41G, G42U, A53C
B25: target 1 insG 3' of 11,insG 3' of 1 (mixed)
RNA 1: B1 RNA 1
RNA 2: B2 RNA 2 with A53G
B26: target 1 insG 3' of 14,insG 3' of 1 (mixed)
RNA 1: B1 RNA 1
RNA 2: B2 RNA 2 with U41G, G42U, A53G
B27: target 1 insG 3' of 10,insG 3' of 3 (mixed)
RNA 1: B1 RNA 1
RNA 2: B2 RNA 2 with G42U, U43G, C51G, A52C
B28: target 1 U3A,A20U (mixed)
RNA 1: B1 RNA 1
RNA 2: B5 RNA 2 with A32U, U37G, A40G, U49A
B29: target 1 insA 3' of 12,insG 3' of 3 (mixed)
RNA 1: B1 RNA 1
RNA 2: B2 RNA 2 with U41A, G42U, C51G, A52C
B30: target 1 insU 3' of 18,insU 3' of 5 (mixed)
RNA 1: B1 RNA 1
RNA 2: GGGAAUGGAUCCACAUCUACGAAUUCGUACCAUAUGAGAGGUUAUCCGUCUCACCGAGAUCGGAAGAGCACACGU
B31: target 1 C2G,G15U (mixed)
RNA 1: B1 RNA 1
RNA 2: B5 RNA 2 with A40G, C50G
B32: target 1 U19C,C22A (mixed)
RNA 1: B1 RNA 1
RNA 2: B5 RNA 2 with C30A, U33C, U37G, A40G
B33: target 1 insA 3' of 21,insG 3' of 20 (mixed)
RNA 1: B1 RNA 1
RNA 2: B1 RNA 2 with U33A, A34G, G35U, U42G

Residue numbers refer to the chain shown, from its start. In names and notes the source's numbering stands.

In this data set the target is T1, EsCas13d, nuclease-dead (Eubacterium siraeum, UniProt B0MS50, R295A;H300A;R849A;H854A).
T1 sequence: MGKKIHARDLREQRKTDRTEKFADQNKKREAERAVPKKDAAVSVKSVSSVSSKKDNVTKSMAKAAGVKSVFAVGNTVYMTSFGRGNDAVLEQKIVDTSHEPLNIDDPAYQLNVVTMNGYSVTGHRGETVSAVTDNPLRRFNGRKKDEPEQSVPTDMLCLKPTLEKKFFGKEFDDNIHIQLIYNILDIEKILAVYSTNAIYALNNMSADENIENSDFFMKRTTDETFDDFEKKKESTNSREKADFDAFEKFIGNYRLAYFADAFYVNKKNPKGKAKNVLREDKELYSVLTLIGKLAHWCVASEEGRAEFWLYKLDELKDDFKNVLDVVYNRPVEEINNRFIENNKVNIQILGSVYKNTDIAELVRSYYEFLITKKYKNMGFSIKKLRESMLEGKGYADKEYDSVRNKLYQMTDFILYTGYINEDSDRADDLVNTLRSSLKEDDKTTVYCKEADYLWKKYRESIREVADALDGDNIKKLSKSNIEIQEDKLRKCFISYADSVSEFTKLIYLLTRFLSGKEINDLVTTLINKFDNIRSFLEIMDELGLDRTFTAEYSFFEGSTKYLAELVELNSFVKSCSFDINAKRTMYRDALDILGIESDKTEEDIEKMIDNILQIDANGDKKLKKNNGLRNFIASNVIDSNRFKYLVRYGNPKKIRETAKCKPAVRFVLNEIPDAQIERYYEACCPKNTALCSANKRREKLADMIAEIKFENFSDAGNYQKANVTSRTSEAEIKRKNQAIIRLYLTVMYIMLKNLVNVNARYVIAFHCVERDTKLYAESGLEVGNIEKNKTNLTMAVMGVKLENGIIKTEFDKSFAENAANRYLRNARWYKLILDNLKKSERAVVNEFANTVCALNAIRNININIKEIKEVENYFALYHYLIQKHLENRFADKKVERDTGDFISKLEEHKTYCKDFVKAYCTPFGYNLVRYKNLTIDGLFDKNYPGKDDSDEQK
Briefly: crRNA (strand 1, pre-loaded); Mg2+; 40 mM Tris-HCl pH 7.5, 150 mM NaCl, 6 mM MgCl2, 1 mM DTT, 0.1% Tween-20, 0.2 mg/ml BSA; 25 C; 10 min per concentration, then washed. The following applies: tags: His6-TwinStrep-SUMO cleaved; N-terminal SNAP kept (SNAP-Surface 488); label: 3' end held by stalled T7 RNA polymerase.
As usually defined, the Kd is the concentration at which binding is half-saturated. In turn, B1 registered a Kd of 4.2 ± 0.5 nM.

B2 showed a Kd of 49 ± 6 nM.

B3 came in with a Kd of 60 ± 9 nM.

On to B4, for which the Kd stood at 50 ± 10 nM.

On to B5, for which the dissociation constant Kd came to 18.7 ± 2.5 nM.

Take B6: the Kd came out at 4.12 ± 0.33 nM.

The molecule B7 gave a Kd of 9.7 ± 0.7 nM.

As to B8, binding was characterised by a dissociation constant (Kd) of 13.9 ± 0.8 nM.

For B9, binding was characterised by a dissociation constant (Kd) of 13.3 ± 1.6 nM.

As to B10, binding was characterised by a dissociation constant (Kd) of 7.9 ± 0.4 nM.

B11 gave a Kd of 6.5 ± 0.32 nM.

As for B12, binding was characterised by a dissociation constant (Kd) of 74 ± 21 nM.

B13 displayed a Kd of 24.9 ± 2.3 nM.

In the case of B14, binding was characterised by a dissociation constant (Kd) of 26.1 ± 1.8 nM.

B15 registered a Kd of 35 ± 6 nM. The Kd values of the last two molecules are within 1.5-fold of each other.

As for B16, the Kd was 18 ± 1.7 nM. Against the preceding molecule, the Kd is about 1.9-fold lower.

Regarding B17, binding was characterised by a dissociation constant (Kd) of 20 ± 1.7 nM.

As for B18, binding was put at a Kd of 38 ± 5 nM.

Turning to B19, the Kd is 14 ± 2.2 nM.

Consider B20, for which the affinity, expressed as Kd, was 9 ± 0.4 nM.

The molecule B21 came in with a Kd of 32.9 ± 1.9 nM.

Molecule B22 had a Kd of 5.7 ± 0.8 nM. This Kd is about 5.8-fold lower than that of the molecule before.

The molecule B23 had a Kd of 13.8 ± 0.7 nM.

With B24, the Kd is 10.4 ± 0.4 nM.

B25: binding was put at a Kd of 34 ± 4 nM. This Kd lies about 3.3-fold higher than the previous one.

Regarding B26, the Kd worked out at 11.3 ± 0.7 nM. This Kd lies about 3-fold lower than the previous one.

The molecule B27 gave a Kd of 28.4 ± 2.8 nM. Compared with the last molecule, the Kd is about 2.5-fold higher.

In turn, B28 yielded a Kd of 44 ± 4 nM.

B29 gave a Kd of 18.7 ± 1.6 nM.

For B30, binding was put at a Kd of 48 ± 5 nM.

B31 returned a Kd of 33 ± 13 nM.

In turn, B32 came in with a Kd of 43 ± 5 nM.

With B33, the Kd was 24 ± 4 nM.
